Data: US20240368288A1 (HEMOGENYX PHARMACEUTICALS, published 2024)
Positions count from the first letter of the chain named. Values joined by “and” are separate entries in the source; they are usually repeats but may differ in a detail not shown here. Equal values may be shown once.

T1: human FLT3 (Fms Related Receptor Tyrosine Kinase 3) expressed on cells (human, UniProt P36888 27-993)
T1 construct: whole, on cells; Same entry used for all cell lines; also called FLK2
T1 sequence (looked up): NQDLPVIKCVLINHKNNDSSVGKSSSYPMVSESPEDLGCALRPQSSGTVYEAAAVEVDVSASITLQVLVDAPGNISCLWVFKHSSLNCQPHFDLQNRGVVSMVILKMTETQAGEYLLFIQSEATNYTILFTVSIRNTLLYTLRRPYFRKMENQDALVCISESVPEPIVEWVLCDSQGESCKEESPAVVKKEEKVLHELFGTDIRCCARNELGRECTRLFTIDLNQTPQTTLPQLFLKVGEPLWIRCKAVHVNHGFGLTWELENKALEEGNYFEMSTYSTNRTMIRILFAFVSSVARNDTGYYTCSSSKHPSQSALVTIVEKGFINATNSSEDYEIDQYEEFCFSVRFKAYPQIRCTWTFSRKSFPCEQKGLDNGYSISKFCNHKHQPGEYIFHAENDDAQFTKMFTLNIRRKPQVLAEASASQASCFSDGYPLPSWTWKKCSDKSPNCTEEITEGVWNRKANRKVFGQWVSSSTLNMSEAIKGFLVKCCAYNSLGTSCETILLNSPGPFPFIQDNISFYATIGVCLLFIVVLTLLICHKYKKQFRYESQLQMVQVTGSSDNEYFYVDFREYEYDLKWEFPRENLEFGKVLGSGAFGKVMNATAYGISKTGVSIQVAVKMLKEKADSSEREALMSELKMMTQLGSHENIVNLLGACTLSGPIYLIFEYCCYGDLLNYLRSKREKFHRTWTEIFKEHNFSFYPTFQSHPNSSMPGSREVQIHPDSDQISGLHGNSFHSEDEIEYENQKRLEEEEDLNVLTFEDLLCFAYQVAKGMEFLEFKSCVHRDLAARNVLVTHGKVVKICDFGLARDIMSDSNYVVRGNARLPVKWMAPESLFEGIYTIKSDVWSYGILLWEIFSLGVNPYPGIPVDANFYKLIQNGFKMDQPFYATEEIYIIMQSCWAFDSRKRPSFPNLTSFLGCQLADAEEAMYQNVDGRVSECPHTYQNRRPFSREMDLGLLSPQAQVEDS

B1: CD3xFLT3 bispecific antibody 118BA #3C (bispecific antibody, human IgG1, lambda)
heavy: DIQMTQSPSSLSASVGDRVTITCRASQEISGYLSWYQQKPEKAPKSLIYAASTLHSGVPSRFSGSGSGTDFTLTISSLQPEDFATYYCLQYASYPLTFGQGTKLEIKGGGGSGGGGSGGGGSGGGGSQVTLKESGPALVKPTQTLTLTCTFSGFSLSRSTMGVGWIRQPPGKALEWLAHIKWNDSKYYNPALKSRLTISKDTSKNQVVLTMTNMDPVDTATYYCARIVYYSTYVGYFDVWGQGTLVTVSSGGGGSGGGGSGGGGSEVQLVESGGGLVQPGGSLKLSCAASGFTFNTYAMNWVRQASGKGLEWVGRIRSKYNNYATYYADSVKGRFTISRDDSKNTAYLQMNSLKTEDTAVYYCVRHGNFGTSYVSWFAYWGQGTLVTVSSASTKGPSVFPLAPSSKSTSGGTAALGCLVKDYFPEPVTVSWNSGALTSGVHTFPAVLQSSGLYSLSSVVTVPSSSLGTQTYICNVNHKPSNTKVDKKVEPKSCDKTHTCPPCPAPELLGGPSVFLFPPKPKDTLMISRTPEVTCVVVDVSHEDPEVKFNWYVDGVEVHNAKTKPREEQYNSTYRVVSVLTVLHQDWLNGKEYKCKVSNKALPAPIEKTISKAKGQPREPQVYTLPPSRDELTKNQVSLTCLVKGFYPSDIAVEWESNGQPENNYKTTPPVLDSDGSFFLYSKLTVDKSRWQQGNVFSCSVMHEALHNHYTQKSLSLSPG
light: QAVVTQEPSFSVSPGGTVTLTCGSSTGAVTTSNYANWVQQTPGQAFRGLIGGTNKRSSGVPDRFSGSLLGDKAALTITGAQADDESDYYCALWFSNHWVFGGGTKLTVLGGQPKAAPSVTLFPPSSEELQANKATLVCLISDFYPGAVTVAWKADSSPVKAGVETTTPSKQSNNKYAASSYLSLTPEQWKSHRSYSCQVTHEGSTVEKTVAPTECS
B2: CD3xFLT3 bispecific antibody 118BA #3B (bispecific antibody, human IgG1, lambda)
heavy: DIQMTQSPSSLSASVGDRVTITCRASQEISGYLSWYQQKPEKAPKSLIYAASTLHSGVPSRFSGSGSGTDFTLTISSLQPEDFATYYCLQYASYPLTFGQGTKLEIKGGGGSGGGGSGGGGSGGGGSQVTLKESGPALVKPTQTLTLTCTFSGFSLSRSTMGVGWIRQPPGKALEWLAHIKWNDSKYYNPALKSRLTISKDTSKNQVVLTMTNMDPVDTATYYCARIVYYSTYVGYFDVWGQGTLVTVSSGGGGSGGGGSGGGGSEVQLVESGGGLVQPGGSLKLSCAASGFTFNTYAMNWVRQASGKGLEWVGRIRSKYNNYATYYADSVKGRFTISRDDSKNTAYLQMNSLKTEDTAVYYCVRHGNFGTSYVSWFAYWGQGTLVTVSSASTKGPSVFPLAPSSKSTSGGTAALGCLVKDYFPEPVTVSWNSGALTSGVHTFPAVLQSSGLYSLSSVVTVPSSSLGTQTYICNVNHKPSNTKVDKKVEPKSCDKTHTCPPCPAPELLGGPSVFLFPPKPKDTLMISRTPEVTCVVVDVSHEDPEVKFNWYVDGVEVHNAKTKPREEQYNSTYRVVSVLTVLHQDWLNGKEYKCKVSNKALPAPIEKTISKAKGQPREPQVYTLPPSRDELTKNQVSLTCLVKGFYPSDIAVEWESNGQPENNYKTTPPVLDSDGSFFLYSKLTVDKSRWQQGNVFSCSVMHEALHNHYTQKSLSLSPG
light: B1 light with S57V
B3: CD3xFLT3 bispecific antibody 118BA #3A (bispecific antibody, human IgG1, lambda)
heavy: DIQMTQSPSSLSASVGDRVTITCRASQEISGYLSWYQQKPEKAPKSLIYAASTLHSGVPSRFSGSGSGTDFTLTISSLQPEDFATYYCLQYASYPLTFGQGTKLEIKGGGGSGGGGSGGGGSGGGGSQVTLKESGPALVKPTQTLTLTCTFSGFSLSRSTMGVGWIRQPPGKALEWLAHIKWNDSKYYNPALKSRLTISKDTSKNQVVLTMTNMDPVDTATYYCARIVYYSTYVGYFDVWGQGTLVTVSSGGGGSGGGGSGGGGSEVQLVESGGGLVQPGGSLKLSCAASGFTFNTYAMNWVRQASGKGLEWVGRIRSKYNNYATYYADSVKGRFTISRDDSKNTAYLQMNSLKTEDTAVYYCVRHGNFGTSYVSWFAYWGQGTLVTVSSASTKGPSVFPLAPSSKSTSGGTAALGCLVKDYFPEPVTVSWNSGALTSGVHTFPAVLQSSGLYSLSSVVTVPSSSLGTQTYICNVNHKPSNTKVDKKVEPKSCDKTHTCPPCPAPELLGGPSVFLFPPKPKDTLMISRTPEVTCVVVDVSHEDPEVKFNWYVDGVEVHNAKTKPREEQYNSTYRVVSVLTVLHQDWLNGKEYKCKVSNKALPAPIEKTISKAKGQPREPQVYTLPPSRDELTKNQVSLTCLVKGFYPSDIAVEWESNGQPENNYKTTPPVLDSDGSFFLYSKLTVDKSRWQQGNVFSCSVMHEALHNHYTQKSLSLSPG
light: B1 light with F94Y, H97L
B4: CD3xFLT3 bispecific antibody 118BA #3a1 (bispecific antibody, human IgG1, lambda)
heavy: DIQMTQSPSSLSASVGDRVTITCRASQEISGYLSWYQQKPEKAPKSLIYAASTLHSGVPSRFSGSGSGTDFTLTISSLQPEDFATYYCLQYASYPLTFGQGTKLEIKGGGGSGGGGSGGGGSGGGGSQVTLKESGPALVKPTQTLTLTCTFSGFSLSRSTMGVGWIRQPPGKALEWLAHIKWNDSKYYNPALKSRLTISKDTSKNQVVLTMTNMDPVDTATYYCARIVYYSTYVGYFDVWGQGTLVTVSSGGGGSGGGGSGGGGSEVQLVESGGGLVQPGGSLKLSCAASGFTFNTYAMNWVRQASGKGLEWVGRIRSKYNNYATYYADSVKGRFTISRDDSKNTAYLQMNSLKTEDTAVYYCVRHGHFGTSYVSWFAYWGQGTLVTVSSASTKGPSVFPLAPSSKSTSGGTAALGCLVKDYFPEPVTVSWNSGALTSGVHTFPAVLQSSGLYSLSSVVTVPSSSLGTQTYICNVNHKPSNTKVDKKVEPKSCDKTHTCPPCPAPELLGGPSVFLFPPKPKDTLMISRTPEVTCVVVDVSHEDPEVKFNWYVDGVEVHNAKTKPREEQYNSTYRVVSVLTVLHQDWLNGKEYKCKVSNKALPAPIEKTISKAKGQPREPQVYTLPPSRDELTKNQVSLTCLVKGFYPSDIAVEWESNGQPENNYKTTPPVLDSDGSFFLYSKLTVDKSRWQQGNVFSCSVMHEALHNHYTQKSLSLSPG
light: B1 light
B5: chimeric monoclonal anti-FLT3 antibody 118BA (antibody, V domains shown)
VH: QVTLKESGPGILQPSQTLSLTCSFSGFSLSTSTMGVGWIRQPSGKGLEWLLHILWNDSKYYNPALKSRLTISKDTYNKQVFLKIANVDTADTATYYCARIVYYSTYVGYFDVWGAGTTVTVSS
VL: DIQMTQSPSSLSASLGERVSLTCRASQEISGYLSWLQQKPDGTIKRLIYAASTLHSGVPKRFSGSRSGSDYSLTISRLESEDVADYYCLQYASYPFTFGSGTKLEIK
B6: humanized SP34 variant 2 (antibody, human IgG1, V domains shown)
VH: EVQLVESGGGLVQPGGSLKLSCAASGFTFNTYAMNWVRQASGKGLEWVGRIRSKYNNYATYYADSVKGRFTISRDDSKSTAYLQMNSLKTEDTAVYYCVRHGNFGNSYVSWFAYWGQGTLVTVSS
VL: QAVVTQEPSLTVSPGGTVTLTCGSSTGAVTTSNYANWVQQKPGQAFRTLIGGTNKKHPWTPARFSGSLLGGKAALTLSGAQPEDEAEYYCALWYSNLWVFGGGTKLTVLG
notes: also called humSP34-v2; humanized anti-CD3 SP34 variant 2
B7: humanized SP34 variant 6 (antibody, human IgG1, V domains shown)
VH: B6 VH with S79N
VL: QAVVTQEPSFSVSPGGTVTLTCGSSTGAVTTSNYANWVQQTPGQAFRGLIGGTNKRSSGVPDRFSGSLLGDKAALTITGAQADDESDYYCALWYSNLWVFGGGTKLTVLG
notes: also called humSP34-v6; humanized anti-CD3 SP34 variant 6
B8: humanized 118BA variant 1 (antibody, V domains shown)
VH: QVTLKESGPTLVKPTQTLTLTCTFSGFSLSTSTMGVGWIRQPPGKALEWLAHILWNDSKRYNPSLKSRLTITKDTSKKQVVLTMTNMDPVDTATYYCARIVYYSTYVGYFDVWGQGTTVTVSS
VL: DIQMTQSPSSLSASVGDRVTITCRASQEISGYLSWLQQKPGKAIKRLIYAASTLQSGVPSRFSGSRSGSDYTLTISSLQPEDFATYYCLQYASYPFTFGQGTKLEIK
notes: detected with anti-human IgG Fc; also called 18BA-v1; 1-18BA-v1
B9: humanized 118BA variant 5 (antibody, V domains shown)
VH: B8 VH with V2I, S58D, N62G
VL: EIVMTQSPGTLSLSPGERATLSCRASQEISGYLSWLQQKPGQAIRRLIYAASTRATGIPDRFSGSRSGSDYTLTISRLEPEDFAVYYCLQYASYPFTFGQGTKLEIK
notes: detected with anti-human IgG Fc; also called 18BA-v5

Experiments:
[1] = target: T1, human FLT3 (Fms Related Receptor …); assay: flow cytometry on FLT3+ REH cells
From the text: (§1) Cells were washed five times with flow buffer and stained with anti-human IgG lambda antibody conjugated to FITC (Southern Biotech 2070-02). Cells were stained with 7-AAD (7-AAD Viability Staining Solution, Biolegend 420404) followed by flow cytometry analysis.

[2] = target: T1, human FLT3 (Fms Related Receptor …); assay: cell-based or functional assay
[3] = target: T2, human CD3 on the surface of T cells / Jurkat cells (human, UniProt P07766 23-207; P09693 23-182; P04234 22-171); assay: flow cytometry on CD3+ human T cells
T2 construct: whole, on cells
T2 sequence (P07766 23-207, chain 1 of 3): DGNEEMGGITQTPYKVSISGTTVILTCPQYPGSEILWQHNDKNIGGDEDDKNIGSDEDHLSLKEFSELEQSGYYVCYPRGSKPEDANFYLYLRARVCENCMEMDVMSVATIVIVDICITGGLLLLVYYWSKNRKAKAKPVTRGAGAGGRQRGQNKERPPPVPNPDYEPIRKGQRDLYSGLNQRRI
T2 sequence (P09693 23-182, chain 2 of 3): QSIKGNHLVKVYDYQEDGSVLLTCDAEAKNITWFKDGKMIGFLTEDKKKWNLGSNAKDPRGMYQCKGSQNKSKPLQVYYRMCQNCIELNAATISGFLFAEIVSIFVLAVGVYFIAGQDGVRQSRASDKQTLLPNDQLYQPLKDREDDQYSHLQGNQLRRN
T2 sequence (P04234 22-171, chain 3 of 3): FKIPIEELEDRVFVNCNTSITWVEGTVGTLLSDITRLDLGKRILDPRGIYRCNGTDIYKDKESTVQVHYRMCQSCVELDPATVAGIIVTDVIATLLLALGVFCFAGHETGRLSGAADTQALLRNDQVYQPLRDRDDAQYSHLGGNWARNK
From the text: as §1

[4] = target: T3, Recombinant Human CD3 epsilon Fc Chimera Protein (R&D, no. 9850-CD-050) (human, UniProt P07766 23-126); assay: ELISA, plate coated with recombinant human CD3 epsilon Fc chimera
T3 construct: Bought reagent; Fc part of the bought chimera not given
T3 sequence (P07766 23-126, change not shown): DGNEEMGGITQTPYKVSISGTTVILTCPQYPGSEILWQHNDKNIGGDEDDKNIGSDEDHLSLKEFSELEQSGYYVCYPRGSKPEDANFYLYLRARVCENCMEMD
Procedure: The plate was washed with wash buffer (PBS (Caisson Labs, no. PBL06)+0.05% Tween20 (ThermoFisher, no. 28320)) The plate was blocked with blocking buffer (PBS (Caisson Labs, no. PBL06)+1% (w/v) BSA (Rockland, no. BSA-50)+0.05% Tween20 (ThermoFisher, no 28320)) for two hours at room temperature (RT). Plate was washed twice with wash buffer. […] Plate was washed 4× with wash buffer. Plate was incubated with 100 μL per well of 1:200 goat anti-human lambda-HRP secondary antibody (SouthernBiotech, no. 2070-05) for one hour at RT. Plate was washed 4× with wash buffer. Plate was incubated with 100 μL per well of TMB Substrate (ThermoFisher Cat #34029) for 20 minutes protected from light. Stop solution (2N H₂SO₄) was added to each well. Absorbance of wells was recorded at 450 nm on an Envision plate reader (PerkinElmer). […] Variable slope (four parameters) curve was fit to the data and EC50 was used to compare binding affinities.

[5] = target: T1, human FLT3 (Fms Related Receptor …); assay: flow cytometry, chimeric antibody on FLT3-expressing REH cells
[6] = target: T2, human CD3 on the surface of T cells / …; assay: flow cytometry on CD3-expressing Jurkat cells
Procedure: The mouse heavy and light chain variable regions of SP34 clone were humanized and two humanized variants were tested for their binding affinities to CD3 in Jurkat cells (ATCC) expressing high levels of CD3. Jurkat cells were stained with various concentrations of humanized SP34 variants 2 and 6 (variant 2 VH and VL are SEQ ID NOs: 67 and 68, respectively; variant 6 VH and VL are SEQ ID NOs: 69 and 70, respectively) antibodies prepared in PBS+2% BCS+2 mM EDTA (flow buffer). Cells were washed five times with flow buffer and stained with anti-human IgG Fc antibody conjugated to Alexa Flour 488 (Jackson Immunoresearch Laboratories, 109-095-008). Cells were stained with 7-AAD (7-AAD Viability Staining Solution, Biolegend 420404) followed by flow cytometry analysis.

[7] = target: T1, human FLT3 (Fms Related Receptor …); assay: flow cytometry on FLT3-expressing REH cells
From the text: Cells were washed five times with flow buffer and stained with anti-human IgG Fc antibody conjugated to Alexa Fluor 488 (Jackson Immunoresearch Laboratories, 109-545-008). Cells were stained with 7-AAD (7-AAD Viability Staining Solution, Biolegend 420404) followed by flow cytometry analysis. […] The antibodies used are as described in Example 1.

| Binder | EC50 [1] [nM] | EC50 of cytotoxicity against REH cells [2] [nM] | EC50 [3] [nM] | other results |
| --- | --- | --- | --- | --- |
| B1 | 0.9 | 0.013 | 32 |  |
| B2 | 1.23 | 0.017 | 13.6 |  |
| B3 | 1.18 | 0.013 | 15.5 |  |
| B4 | 1.17 | 0.33 |  | EC50 [4]: 0.0331 µg/mL and 0.16 nM |
| B5 |  |  |  | EC50 [5]: 0.77 nM |
| B6 |  |  |  | EC50 [6]: 2.38 nM |
| B7 |  |  |  | EC50 [6]: 3.2 nM |
| B8 |  |  |  | EC50 [7]: 0.4 nM |
| B9 |  |  |  | EC50 [7]: 0.72 nM |
